Measurements published in patent US20140348834A1 (published 2014).
Read-outs that look alike come from different tables or passages of the source.

Tests used:
human IL-17A [1] = target: T1, human IL-17A (human, UniProt Q16552 24-155); assay: cell-based or functional assay
human IL-17A [2] = target: T1, human IL-17A; assay: hIL17A ELISA
Experimental: The following protocol is used to characterize the binding of IL-17 antibodies to human IL-17 by enzyme-linked immunosorbent assay (ELISA). […] Coat ELISA plate with 50 μl per well of Goat anti Mouse IgG-Fc at 2 ug/ml, overnight at 4° C. […] Wash plate 3×PBS/Tween. […] Add 50 μl Mab diluted to 1 μg/ml in PBS/0.1% BSA to appropriate wells. Incubate 1 hr at room temperature (RT). […] Wash plate 3× with PBS/Tween. […] Add 50 μl of serial diluted biotin-IL17 (human IL-17, IL-17A/F, cyno IL-17) to appropriate wells. Incubate 1 hr at room temperature (RT). […] Wash plate 3× with PBS/Tween. […] Incubate 1 hr at RT. […] Wash plate 3× with PBS/Tween. […] Stop reaction with 50 μl 2N H₂SO₄. […] Read absorbance at 450 nm.

human IL-17A [3] = target: T1, human IL-17A; assay: cell-based or functional assay; remark: listed apart in the source
cynomolgus monkey IL-17A [4] = target: T2, cynomolgus monkey IL-17A (cynomolgus monkey, UniProt A0A2K5TTB0 24-155); assay: cell-based or functional assay
T2 sequence (A0A2K5TTB0 entry or part of it): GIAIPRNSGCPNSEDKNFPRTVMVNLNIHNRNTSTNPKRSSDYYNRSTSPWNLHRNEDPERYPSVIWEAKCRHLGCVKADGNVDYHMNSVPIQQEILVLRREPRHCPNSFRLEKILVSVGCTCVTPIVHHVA

human IL-17A/F = target: T3, human IL-17A/F (human, UniProt Q16552 24-155; Q96PD4 31-163); assay: SPR (Biacore 3000), antibody captured by anti-Fc, antigen in solution;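 note: purified recombinant IL-17 antigens flowed over captured antibodies in HBS-EP buffer, global Langmuir one-to-one fit of association and dissociation phases, KD derived from koff over kon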
T3 construct: Recombinant; biotinylated in the ELISA; also called hIL-17A/F; HuIL-17A/F
T3 sequence (Q16552 24-155, chain 1 of 2): as the sequence (A0A2K5TTB0 entry or part of it) above, with A3T, S8P, S34N, V77I, K78N, R104P counted along it
T3 sequence (Q96PD4 31-163, chain 2 of 2): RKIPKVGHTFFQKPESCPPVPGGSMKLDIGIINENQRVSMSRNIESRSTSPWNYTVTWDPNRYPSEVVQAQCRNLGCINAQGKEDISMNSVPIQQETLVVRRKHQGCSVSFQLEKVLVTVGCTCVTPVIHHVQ
Experimental: (§1) The binding of antibodies to purified recombinant human, cyno, rat, mouse, rabbit IL-17 and human IL-17A/F were determined by surface plasmon resonance-based measurements with a Biacore® 3000 instrument (Biacore® AB, Uppsala, Sweden) using running HBS-EP (10 mM HEPES [pH 7.4], 150 mM NaCl, 3 mM EDTA, and 0.005% surfactant P20) at 25° C. […] Approximately 5000 RU of goat anti-mouse or anti-human IgG (Fcγ) fragment specific polyclonal antibody (Pierce Biotechnology Inc, Rockford, Ill.) diluted in 10 mM sodium acetate (pH 4.5) was directly immobilized across a CM5 research grade biosensor chip using a standard amine coupling kit according to manufacturer's instructions and procedures at 25 μg/ml. Unreacted moieties on the biosensor surface were blocked with ethanolamine. Modified carboxymethyl dextran surface in flowcell 2 and 4 was used as a reaction surface. Unmodified carboxymethyl dextran without goat anti-mouse or anti-human IgG in flow cell 1 and 3 was used as the reference surface. For kinetic analysis, rate equations derived from the 1:1 Langmuir binding model were fitted simultaneously to association and dissociation phases of all eight injections (using global fit analysis) with the use of Biaevaluation 4.0.1 software. Purified antibodies were diluted in HEPES-buffered saline for capture across goat anti-mouse or anti-human IgG specific reaction surfaces. Antibodies to be captured as a ligand (25 μg/ml) were injected over reaction matrices at a flow rate of 5 μl/min. The association and dissociation rate constants, kon (unit M-1s-1) and koff (unit s-1) were determined under a continuous flow rate of 25 μl/min. Rate constants were derived by making kinetic binding measurements at ten different antigen concentrations ranging from 10 nM to 200 nM. The equilibrium dissociation constant (unit M) of the reaction between antibodies and recombinant purified IL-17 antigens was then calculated from the kinetic rate constants by the following formula: KD=koff/kon. Binding was recorded as a function of time and kinetic rate constants are calculated. In this assay, on-rates as fast as 10⁶ M⁻¹ s⁻¹ and off-rates as slow as 10⁻⁶ s⁻¹ can be measured.

human IL-17A [5] = target: T1, human IL-17A; assay: as above
Experimental: as §1

rat IL-17A = target: T4, rat IL-17A (rat, UniProt Q61453 18-150, limits assumed); assay: as above
T4 construct: Purified recombinant protein in SPR
T4 sequence (looked up): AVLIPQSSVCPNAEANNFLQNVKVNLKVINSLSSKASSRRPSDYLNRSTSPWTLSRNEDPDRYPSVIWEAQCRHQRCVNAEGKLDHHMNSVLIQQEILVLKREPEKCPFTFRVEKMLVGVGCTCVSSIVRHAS
Experimental: as §1

mouse IL-17A = target: T5, mouse IL-17A (mouse, UniProt Q62386 26-158, limits assumed); assay: as above
T5 construct: Purified recombinant protein in SPR; also called MuIL-17A; murine IL-17A
T5 sequence (looked up): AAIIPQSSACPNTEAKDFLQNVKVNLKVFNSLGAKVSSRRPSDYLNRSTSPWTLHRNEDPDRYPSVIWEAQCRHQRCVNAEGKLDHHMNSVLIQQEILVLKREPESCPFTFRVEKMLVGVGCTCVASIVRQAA
Experimental: as §1

cynomolgus monkey IL-17A [6] = target: T2, cynomolgus monkey IL-17A; assay: as above
Experimental: as §1

human IL-17A [7] = target: T1, human IL-17A; assay: cell-based or functional assay; remark: listed apart in the source
cynomolgus monkey IL-17A [8] = target: T2, cynomolgus monkey IL-17A; assay: cell-based or functional assay; remark: listed apart in the source

T1 sequence (Q16552 24-155): as the sequence (A0A2K5TTB0 entry or part of it) above, with A3T, S8P, S34N, V77I, K78N, R104P counted along it

B1: ML109-8B12 (antibody, V domains shown)
VH: QVQLKESGPGLVAPSQSLSITCTISGFSLTSYGVHWVRQPPGKGLEWLVVIWSDGTTTYNSALKSRLSITRDNSKSQVFLKMNSLQTDDTAIYYCARDSTWDYYYTMDYWGQGTPVTVSS
VL: DVVMTQTPLSLPVSLGDQASISCRSSQSLVHSNGNTYLHWYLQKPGQSPKLLIYKVSNRFSGVPDRFSGSGSGTDFTLKISRVEAEDLGVYFCSQSTHVYTFGGGTKLEIKR
B1 was tested, and the “Potency (pM), IL-17-driven IL-6 production in HS27 cells” value (“Potency (pM)” below) (human IL-17A [1]) was 137 pM.

B2: IL17-h5C5.14 (antibody, V domains shown)
VH: EVQLVQSGAEVKKPGASVKVSCKASGYTFTDYEFHWVRQAPGQGLEWMGVIHPGNGGTAYNQNFRDRVTITADKSTSTAYMELSSLRSEDTAVYYCARFLTYEGYFDYWGQGTLVTVSS
VL: EIVMTQSPATLSVSPGERATLSCKASQSVSIDVGWFQQKPGQSPRLLIYHASNRYTGVPARFSGSGSGTDFTLTISSLQPEDFAVYFCQQDYSSPYTFGQGTKLEIKR
notes: IgG; constant regions not specified; also called h5C5.14 (VH.1-Vk.3a)
In the case of B2, the EC50 (human IL-17A [2]) is reported as 0.03 nM, the “Potency (pM)” value (human IL-17A [3]) is reported as 18 pM and the “Potency (pM)” value (cynomolgus monkey IL-17A [4]) is reported as 16 pM. It also gave a Kd (human IL-17A/F) of 1.11 nM, a koff (human IL-17A/F) of 0.00119 s⁻¹ and a kon (human IL-17A/F) of 1.07e+06 M⁻¹ s⁻¹. For the same binder, the Kd (human IL-17A [5]) was 0.363 nM, the koff (human IL-17A [5]) was 0.000472 s⁻¹ and the kon (human IL-17A [5]) was 1.3e+06 M⁻¹ s⁻¹. It also gave a Kd (rat IL-17A) of 5.56 nM, a koff (rat IL-17A) of 0.00398 s⁻¹ and a kon (rat IL-17A) of 716000 M⁻¹ s⁻¹. It also gave a Kd (mouse IL-17A) of 1.86 nM, a koff (mouse IL-17A) of 0.000494 s⁻¹ and a kon (mouse IL-17A) of 266000 M⁻¹ s⁻¹. It also gave a Kd (cynomolgus monkey IL-17A [6]) of 0.245 nM, a koff (cynomolgus monkey IL-17A [6]) of 0.000229 s⁻¹ and a kon (cynomolgus monkey IL-17A [6]) of 934000 M⁻¹ s⁻¹.

B3: IL17-h5C5.21 (antibody, V domains shown)
VH: EVQLVQSGAEVKKPGASVKVSCKASGYTFTDYEFHWVRQAPGQGLEWIGVIHPGNGGTAYNQNFRDRATLTADKSTSTAYMELSSLRSEDTAVYYCTRFLTYEGYFDYWGQGTLVTVSS
VL: NIVMTQSPATLSVSPGERATLSCKASQSVSIDVGWFQQKPGQSPRLLIYHASNRYTGVPARFSGSGSGTDFTLTISSLQPEDFAVYFCQQDYSSPYTFGQGTKLEIKR
notes: IgG; constant regions not specified; also called h5C5.21 (VH.1b-Vk.3c)
For B3, the EC50 (human IL-17A [2]) was 0.03 nM, the “Potency (pM)” value (human IL-17A [3]) was 9 pM and the “Potency (pM)” value (cynomolgus monkey IL-17A [4]) was 9 pM. The Kd (human IL-17A/F) was 1.39 nM, the koff (human IL-17A/F) was 0.00111 s⁻¹ and the kon (human IL-17A/F) was 801000 M⁻¹ s⁻¹. It also gave a Kd (human IL-17A [5]) of 0.729 nM, a koff (human IL-17A [5]) of 0.000395 s⁻¹ and a kon (human IL-17A [5]) of 542000 M⁻¹ s⁻¹. For the same binder, the Kd (rat IL-17A) was 5.97 nM, the koff (rat IL-17A) was 0.0024 s⁻¹ and the kon (rat IL-17A) was 402000 M⁻¹ s⁻¹. It also gave a Kd (mouse IL-17A) of 3.06 nM, a koff (mouse IL-17A) of 0.000524 s⁻¹ and a kon (mouse IL-17A) of 171000 M⁻¹ s⁻¹. It also gave a Kd (cynomolgus monkey IL-17A [6]) of 0.406 nM, a koff (cynomolgus monkey IL-17A [6]) of 0.00024 s⁻¹ and a kon (cynomolgus monkey IL-17A [6]) of 591000 M⁻¹ s⁻¹.

B4: ML109-10G9 (antibody, V domains shown)
VH: QVQLKESGPALVAPSQSLSFTCTISGFSLSSYGVHWVRQPPGKGLEWLVVIWSDGTTTYNSALKSRLSISKDNSKSQVFLKMNSLQTDDTAMYYCARDGYYIYTMDYWGQGTSVTVSS
VL: DVVMTQTPLSLPVSLGDQASISCRSSQSLVHSNGNTYLHWYLQRPGQSPKLLIYKVSNRFSGVPDRFSGSGSGTDFTLKISRVEAEDLGLYFCSQGTHAPLTFGAGTKLELNR
With B4 the “Potency (pM)” value (human IL-17A [1]) was 131 pM.

B5: IL17-h10F7.17 (antibody, V domains shown)
VH: EVQLVQSGAEVKKPGSSVKVSCKASGYTFTDYEIHWVRQAPGQGLEWIGVNDPESGGTFYNQKFDGRATLTADKSTSTAYMELSSLRSEDTAVYYCTRYYRYESFYGMDYWGQGTTVTVSS
VL: QIVLTQSPDFQSVTPKEKVTITCSASSSISYIYWFQQKPDQSPKRWIYATFELASGVPSRFSGSGSGTDYTLTINSLEAEDAATYYCHQRSSYPWTFGQGTKLEIKR
notes: IgG; constant regions not specified
In the case of B5, the EC50 (human IL-17A [2]) is reported as 0.1 nM, the “Potency (pM)” value (human IL-17A [7]) is reported as 510 pM and the “Potency (pM)” value (cynomolgus monkey IL-17A [8]) is reported as 293 pM.

B6: ML109-1D8 (antibody, V domains shown)
VH: QVQLQQSGAELVRPGASVKLSCKASGYTFSDYEMHWVKQTPVHGLEWIGVIHPGNGGTAYNQKFRDKATLTADKSSTTAYMELSSLTSEDSAVYYCIRFLTYEGYFDYWGQGTTLTVSS
VL: SIVMTQTPKFLLVSAGDRVTITCKASQSVNNDVAWFQHKPGQSPKLLINYASNRYTGVPDRFTGSGYGTDFTFTISTVQSEDLAIYFCQQDYGSPYTFGGGTTLEIKR
B6 was tested, and the “Potency (pM)” value (human IL-17A [1]) was 62 pM.

B7: ML109-5C5 (antibody, V domains shown)
VH: QVQLQQSGAELVRPGASVKLSCKALGYTFTDYEFHWVKQTPVHGLEWIGVIHPGNGGTAYNQNFRDKATLTADKSSSTAYMELSSLTSEDSGVYYCTRFLTYEGYFDYWGQGTALTVSS
VL: NIVMTQTPKFLLVSPGDRVTITCKASQSVSIDVGWFQQKPGQSPKLLIYHASNRYTGVPDRFTGSGYGTDFTFTVNTVQAEDLAVYFCQQDYSSPYTFGGGTKLELKR
In the case of B7, the “Potency (pM)” value (human IL-17A [1]) is reported as 23 pM.
